# Test system: Flag-PTEN
substance,measurement,value
WW domain containing E3 ubiquitin protein ligase 1 (WWP1),"in vitro ubiquitination of Flag-PTEN (E1, E2, ubiquitin; western blot with anti-PTEN antibody), WWP1 alone",incubation of WWP1 alone only slightly triggered PTEN poly-ubiquitination
same,"in vitro ubiquitination of Flag-PTEN, WWP1 and NEDD4-1 both present","in the presence of both WWP1 and NEDD4-1, PTEN was robustly K27-linked poly-ubiquitinated"
